# Assay results published in patent US10815297B2, “Antagonists of IL17C for the treatment of inflammatory disorders” (MorphoSys AG, priority 2011, dated 2020).
# B1: MOR12743: anti-mouse IL17C HuCAL antibody; CDRs SEQ ID NO: 31-36, VL 37, VH 38; human/mouse chimeric IgG2a (antibody, V domains shown)
# VH: QVQLVQSGAEVKKPGASVKVSCKASGYTFTSNFIHWVRQAPGQGLEWMGWISPYNGDTNYAQKFQGRVTMTRDTSISTAYMELSRLRSEDTAVYYCARESVYYGSDYGYNGMDIWGQGTLVTVSS
# VL: DIELTQPPSVSVSPGQTASITCSGDNLGEEYVSWYQQKPGQAPVLVIYDDTKRPSGIPERFSGSNSGNTATLTISGTQAEDEADYYCASWDLWSVEVFGGGTKLTVLGQ
# modifications: mouse IgG2a constant regions; VH; VL
# Tested on: TS-exposed mice (C57BL/6J), pulmonary inflammation
# Assay: Tobacco smoke model, cells recovered in bronchoalveolar lavage
# Type: in vivo, mouse
# Method: The response consisted of significant increases in the numbers of macrophages, epithelial cells, neutrophils and lymphocytes recovered in BAL.
# Vehicle (PBS), MOR12743 and MOR03207 were administered i.p., 1 h prior to TS-exposure on days 1, 4, 7 and 10 of the study. Roflumilast was administered p.o., 1 h prior to each TS-exposure.
# In this exposure protocol, mice were exposed in groups of 5 in clear polycarbonate chambers (27 cm×16 cm×12 cm). The TS from ‘Marlboro 100’ cigarettes was allowed to enter the exposure chambers at a flow rate of 100 mL/min. In order to minimise any potential problems caused by repeated exposure to a high level of TS, the exposure period to TS was increased initially from 25 minutes at the start of the study (day 1) to a maximum of 45 minutes on day 3. The exposure schedule used in this study was as follows:
# The trachea was cannulated using a 10 mm long Luer fitting stainless steel cannula. Phosphate buffered saline (PBS) was used as the lavage fluid. A volume of 0.4 mL was gently instilled and withdrawn 3 times using a 1 mL syringe and then placed in an Eppendorf tube and kept on ice prior to subsequent determinations.
# Lavage fluid was separated from cells by centrifugation (6 min at 3400 rpm, RCF=3070×g—‘Eppendorf Mini Spin’) and the supernatant decanted and frozen for possible subsequent analysis. The cell pellet was re-suspended in a known volume of PBS and total cell numbers calculated by counting a stained (Turks stain) aliquot under a microscope using a haemocytometer.
# The residual cell pellet was diluted to approximately 10^5 cells per mL. A volume of 500 μl was placed in the funnel of a cytospin slide and centrifuged for 8 min at 800 rpm, RCF=72.26×g (Shandon Cytospin 3). The slide was air-dried and stained using Wrights/Giemsa stain as per the proprietary instructions. When dried and cover-slipped, differential cell-counts were performed using light microscopy. Approximately 400 cells were counted for each slide. Cells were identified using standard morphometric techniques.
# In this study, 4 groups of mice were subjected to daily TS-exposure for 11 days and were sacrificed on the 12th day, 24 h after the final TS-exposure. Three groups received either vehicle (D-PBS), MOR12743 or MOR03207, i.p., 1 h prior to TS-exposure on days 1, 4, 7 and 10 of the study. One group received Roflumilast, p.o., 1 h prior to each TS-exposure. A further group was exposed to air for 11 consecutive days and sacrificed on the 12th day, 24 h after the final air-exposure. This group received vehicle (D-PBS), i.p., 1 h prior to exposure on days 1, 4, 7 and 10 of the study. For all groups n=10.
# All mice were killed on day 12, by intra-peritoneal barbiturate anaesthetic overdose, 24 h after final exposure to air or TS. A blood sample was taken over heparin from the sub-clavian vein and the plasma separated by centrifugation and stored at −40° C. A BAL was performed using 0.4 mL of phosphate buffered saline (PBS). Cells recovered from the BAL were used for the total cell and differential cell counts. The BAL supernatants and remaining cell pellet were stored at −40° C. and −80° C. respectively for possible future analysis. Following BAL, the cannula was left tied in place. The heart and lungs were removed after gently opening the thorax and cutting down either side of the sternum and ribs. The left lobe was tied off, removed, snap-frozen and stored at −80° C. The right lobe was inflated with 10% phosphate buffered formalin (PBF) to a pressure of 18 cm of PBF for 20 minutes. The trachea was then ligated below the cannula and the cannula removed. The heart, lung & trachea were immersed in PBF.
# The data were therefore initially subjected to a one-way analysis of variance test (ANOVA), followed by a Bonferroni correction for multiple comparisons in order to test for statistically significant differences between treatment groups. A “p” value of <0.05 was considered to be statistically significant. […]
# [1] = 5 mg/kg i.p. on days 1, 4, 7 & 10
molecule,measurement,setting,value
B1,Inhibition of epithelial cells in BAL,[1],52%
same,Inhibition of lymphocytes in BAL,[1],24%
same,Inhibition of macrophages in BAL,[1],6%
same,Inhibition of neutrophils in BAL,[1],48%
same,Inhibition of total cells in BAL,"5 mg/kg i.p. on days 1, 4, 7 & 10, 1 h prior to TS-exposure, BAL 24 h after last of 11 daily exposures",26%
